{
  "source": "patent US9850293B2",
  "about": "“Targeting trastuzumab-resistant HER2+ breast cancer with a HER3-targeting nanoparticle” (priority 2014, dated 2017)",
  "key": {"[1]": {"assay": "HerDox stability in cell culture media (agarose gel)", "type": "in vitro ADME", "conditions": "serum-containing media, 37° C.", "method": "FIG. 9 (C) illustrates that there is stability in cell culture. Aliquots of culture media containing HerDox (after incubation for the indicated times at 37° C.) were electrophoresed on a 2% agarose gel. HerDox incubated at 37° C. in HEPES-buffered saline, lacking serum, was processed in parallel. Dox fluorescence was visualized by UV excitation. Free Dox (Dox alone) is not retained in the gel whereas Dox incorporated in HerDox is. To align fluorescent bands with HerPBK10 and assess loading per lane, the gel was stained with Coomassie blue, which also identified serum protein from culture media samples.\nBy three days, HerDox reduced HER2+ cell numbers by over 75% whereas HER2− cell survival was unaffected (FIG. 7). […] These findings emphasize the importance of targeting by showing that the untargeted drug affects nontarget (i.e. HER2−) cells. […] To test receptor targeting, the inventors used free heregulin ligand (Her or eHRG) as a competitive inhibitor. […] As a final in vitro challenge, the inventors tested whether HerDox induces toxicity specifically to HER2+ cells in a mixed culture of HER2+ and HER2− breast cancer cells. To do this, the inventors produced a HER2− cell line tagged with green fluorescent protein (GFP) for cell identification in the mixed culture (FIG. 9-A). […]"}, "[2]": {"tested_on": "SKBR3 trastuzumab-resistant cells", "assay": "Tumor cell killing in culture", "type": "cell-based, human", "conditions": "48-72 h after treatment", "method": "(§1) FIG. 21 depicts graph that show the results of the administration of HerDox on various cells. […] N=3. *=p<0.05 compared to parental. […] N=3.\n(§2) N=3. *, p<0.05 compared to parental. […] N=3. […] Parental and resistant cell lines were treated with HerDox−/+HER3 blocking peptide (ErbB3 human; Prospec), and tested for cell survival 48 hours later. […] Treatments were compared to mock (saline)-treatment. […] N=3. *, p<0.05 compared to parental. […] N=3.\n(§3) Each therapeutic was administered at concentration ranges previously established for eliciting therapeutic efficacy.\nEach therapeutic was administered at concentration ranges previously established or known in the art for eliciting therapeutic efficacy."}, "SKBR3 parental cells": {"tested_on": "SKBR3 parental cells", "assay": "Tumor cell killing in culture", "type": "cell-based, human", "method": "as §1, §2\nParental cell lines were pre-treated with 0.5 mg/mL Tz for 24 hours before testing these cells for surface HER3 levels. […] Parental cell lines were pre-treated with 0.5 mg/mL Tz for 24 hours before testing these cells for HerPBK10 binding. […] SKBR3 Parental cells were treated with Tz at indicated concentrations (see upper X-axes) 4 and 24 hours before HerDox treatment and assayed for survival at 48-72 h after treatment. N=3. […] SK-474 Parental cells were treated with Tz at indicated concentrations (see upper X-axes) 4 and 24 hours before HerDox treatment and assayed for survival at 48-72 h after treatment. N=3. […] MDA-MB-435 non-resistant cells were treated with Tz at indicated concentrations (see upper X-axes) 4 and 24 hours before HerDox treatment and assayed for survival at 48-72 h after treatment. […] N=3. […] Tz-resistant cells were treated with Tz at indicated concentrations (see upper X-axes) 4 and 24 hours before HerDox treatment and assayed for survival at 48-72 h after treatment. N=3.\nas §3\nPrevious studies have shown that HER3 is transcriptionally and translationally elevated as soon as 4 hours after HER2 inhibition, either by lapatinib or gene silencing. […]"}, "[3]": {"assay": "Off-target toxicity in treated mice (weight, heart, liver)", "method": "Relative cell survival (as % of untreated cells) on day 3 of treatment. (+Her), pre-incubation of MDA-MB-435 cells with receptor-blocking ligand (recombinant heregulin) before receiving HerDox. N=3. […] Tissues were harvested from independently injected mice euthanized at indicated time points after injection and fluorescence intensity/tissue acquired using a multimode imager. […] Bar, about 4 μm. […] Day 0=3 days before tail vein injections (mice received daily injections for 7 days). […] Day 0=3 days before tail vein injections (mice received daily injections for 7 days). […] Micrographs (20× magnification) in (E) also show representative H&E stained specimens of myocardia and immunofluorescent specimens of livers from treated mice. Green fluorescence in nuclei indicates apoptosis (positive TUNEL stain)."}, "JIMT-1 tumors": {"tested_on": "JIMT-1 tumors", "assay": "Trastuzumab-resistant tumor growth in vivo", "set-up": "species or system mouse", "conditions": "0.004 mg Dox/kg/injection, twice-weekly IV", "method": "(§4) Tumor volumes were measured by calipers. Day 0 corresponds to first day of treatment. N=10 tumors per treatment.\nas §4\nThe efficacy of HerDox was also examined on a cell line with pre-existing resistance.\nThe contribution of HER3 to targeted toxicity was evaluated by assessing whether pre-adsorbing HerDox with a peptide comprising the ligand-binding domain of HER3 blocked cytotoxicity."}, "[4]": {"tested_on": "MDA-MB-435 (non-GFP, HER2+)", "assay": "Targeting in a mixed cell culture", "type": "cell-based, human", "conditions": "0.5 μM Dox, day 2", "method": "(§5) FIG. 9 (A) illustrates targeting in a mixed cell culture.\n(§6) FIG. 9 (B) further illustrates targeting in a mixed cell culture. Cell survival was determined by calculating the relative doubling time (DT) of experimental (exp) cells normalized by control (con) cells based on the crystal violet stains (total cells) and GFP fluorescence (MDA-MB-231 cells). The DT of MDA-MB-435 was determined by subtracting the DT of MDA-MB-231 from the total cell DT. Relative survival is shown for Day 2 of treatment.\n(§7) By three days, HerDox reduced HER2+ cell numbers by over 75% whereas HER2− cell survival was unaffected (FIG. 7). […] These findings emphasize the importance of targeting by showing that the untargeted drug affects nontarget (i.e. HER2−) cells. […] To test receptor targeting, the inventors used free heregulin ligand (Her or eHRG) as a competitive inhibitor. […] As a final in vitro challenge, the inventors tested whether HerDox induces toxicity specifically to HER2+ cells in a mixed culture of HER2+ and HER2− breast cancer cells. To do this, the inventors produced a HER2− cell line tagged with green fluorescent protein (GFP) for cell identification in the mixed culture (FIG. 9-A). […] Altogether, these findings indicate that HerDox has the capacity to preferentially target toxicity to HER2+ cells. […] In serum-containing media, no such loss from HerDox is detectable. […]"}, "[5]": {"tested_on": "GFP(+) MDA-MB-231 (HER2−)", "assay": "Targeting in a mixed cell culture", "type": "cell-based, human", "conditions": "0.5 μM Dox, day 2", "method": "as §5, §6, §7"}},
  "note": "“Also recorded” adds a separate entry of the source.",
  "data": [
    {"molecule": "HerDox: non-covalent complex of HerPBK10, double-stranded oligonucleotide and intercalated Dox (Unit A+Unit B+Unit C) (conjugate, left off: small tags and cut ends) SHLVKCAEKEKTFCVNGGECFMVKDLSNPSRYLCKCQPGFTGARCTENVPMKVQNQEKAEELYQKMRRAAMYEEGPPPSYESVVSAAPVAAALGSPFDAPLDPPFVPPRYLRPTGGRNSIRYSELAPLFDTTRVYLVDNKSTDVASLNYQNDHSNFLTTVIQNNDYSPGEASTQTINLDDRSHWGGDLKTILHTNMPNVNEFMFTNKFKARVMVSRLPTKDNQVELKYEWVEFTLPEGNYSETMTIDLMNNAIVEHYLKVGRQNGVLESDIGVKFDTRNFRLGFDPVTGLVMPGVYTNEAFHPDIILLPGCGVDFTHSRLSNLLGIRKRQPFQEGFRITYDDLEGGNIPALLDVDAYQASLKDDTEQGGGGAGGSNSSGSGAEENSNAAAAAMQPVEDMNDHAIRGDTFATRAEEKRAEAEAAAEAAAPAAQPEVEKPQKKPVIKPLTEDSKKRSYNLISNDSTFTQYRSWYLAYNYGDPQTGIRSWTLLCTPDVTCGSEQVYWSLPDMMQDPVTFRSTRQISNFPVVGAELLPVHSKSFYNDQAVYSQLIRQFTSLTHVFNRFPENQILARPPAPTITTVSENVPALTDHGTLPLRNSIGGVQRVTITDARRRTCPYVYKALGIVSPRVLSSRTFKKKKKKKKKK", "values": [
      {"measurement": "loss of Dox fluorescence from conjugate in culture media", "setting": "[1]", "value": "no such loss"},
      {"measurement": "cell death", "setting": "[2]", "value": "> 80", "unit": "%"},
      {"measurement": "response of parental SKBR3 cells", "setting": "SKBR3 parental cells; 48-72 h after treatment", "value": "improved cell killing compared to trastuzumab; also recorded: improved cell killing compared to Tz"},
      {"measurement": "cell death", "setting": "SKBR3 parental cells; parental SKBR3, 48-72 h after treatment", "value": 50, "unit": "%"},
      {"measurement": "further augmentation of HerDox toxicity by trastuzumab pre-treatment", "setting": "SKBR3 parental cells; parental SKBR3, Tz 4 or 24 hours before HerDox, highest doses tested", "value": "40-50%"},
      {"measurement": "cardiac function (echocardiograms)", "setting": "[3]; 25 days following injections", "value": "no effect on these measurements"},
      {"measurement": "liver and heart toxicity", "setting": "[3]; systemic delivery in vivo", "value": "avoiding liver and heart toxicity"},
      {"measurement": "effect on JIMT-1 tumor growth", "setting": "JIMT-1 tumors", "value": "ablated tumor growth"},
      {"measurement": "non-GFP (HER2+) cell proliferation in mixed culture", "setting": "[4]", "value": "nearly completely reduced"},
      {"measurement": "GFP (HER2−) cell growth in mixed culture", "setting": "[5]", "value": "not altered"}
    ]}
  ]
}
